The data set in a line: amyloid nucleation score (Sup35N fusion, yeast selection) (log enrichment); library NNK3; higher = more nucleation; inactive = no reads after selection. An outline of the steps:
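Output and input plasmid inserts were sequenced by Illumina after psi-negative yeast carrying Sup35N fused to peptides of 20 random codons had been induced 24 hours with 100 μM copper sulfate and grown 7 days at 30°C on medium lacking adenine and uracil. The nucleation score is the DiMSum log enrichment of output over input reads, centred on the mode score of non-aggregating sequences. Sequences with under 100 input reads were excluded.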

± gives the uncertainty stated by the source.

With SGSSVPSLYCVDYAVDG, the amyloid nucleation score result is “inactive”.
The value for IMSSTGIFNLLRAESMCSLF was “inactive”; that for VSIRTR was “inactive”; that for ASENLAEVLIVT was “inactive”.
The value for GHVSHYVVVLHLTSIGSCGL was 0.696 ± 0.23; that for TNNQNSDRFGVTVPSLTFVR was “inactive”; that for GGKLSRNI was “inactive”.
On to IFDLWLRLYSLANYNGSFVT, for which the amyloid nucleation score entry was “inactive”.
Take KYSTSPNFKIIQVLMGLPLR: the amyloid nucleation score result is “inactive”.
The value for QNHTVHSARWDNGSTANTTT was “inactive”.
Turning to QHRSESIFFVIKSLLLRGCI, the amyloid nucleation score entry was “inactive”.
Substance YSIIVSRNRNGRLRFRWSNG yielded an amyloid nucleation score of -0.368 ± 0.8.
In the case of ERVLRVNHYWICSFPFNPGV it was “inactive”.
The value for IAGKIEIIVVRCYSLVGPCT was 0.305 ± 0.19; that for ILGKRC was “inactive”; that for LSKVVLLVFKGTP was “inactive”.
On to ISLVLVCYKASVITLWENQW, for which the amyloid nucleation score was -0.627 ± 1.4.
As for SSDFTSWDVREILGRAVVLC, the amyloid nucleation score result is “inactive”.
In the case of VDEAEKGVNHLERRGSYSRY it was “inactive”; in that of FFFRYILKGMPVLFAVCRHC, “inactive”; in that of SKCDMCTYTQRFNDL, “inactive”.
The value for ICWKRCHG was “inactive”.
Take SDIAVLRRLNCMKVKLKLWH: the amyloid nucleation score result is “inactive”.
SHRNTKKFMEWIFLYFIPTM came in with an amyloid nucleation score of 0.064 ± 0.62.
In the case of IFCMFYGSMQAQTIKCNVTH it was 1.19 ± 0.093; in that of TDVISRMMRGGQVLCMCKQC, “inactive”.
As for RSILDM, the amyloid nucleation score result is “inactive”.
In the case of MSSISIKGKIYDWMFRFCCR it was “inactive”; in that of QSNFLFLDFANVYSHKQWCL, 1.71 ± 0.066; in that of LQRIGIYMTTFCENRCPDAE, “inactive”.
In the case of SYRHCNWDAKKVAIGTVVWD it was “inactive”; in that of SHGLVIVRTKRPSNGFENGW, “inactive”; in that of GSCKVADAPCSHARR, -0.331 ± 1.3.
In the case of YVLKLSRYMPN, the amyloid nucleation score entry is “inactive”.
For FPHSSGCYDAVTWSSWNGGH, the amyloid nucleation score entry is “inactive”.
In the case of VTLQLPDCFGRACIGLAYIA it was “inactive”; in that of SFNSQSSRRVDNQRWVNLNF, 0.886 ± 0.11.
The value for FGFYKWPTTCLGSVSSLSSM was 0.749 ± 0.11.
On to MYCSTYTVFYYAGIRVLCGD, for which the amyloid nucleation score worked out at 1.28 ± 0.14.
The value for WVNFRSPFLNGANA was -0.686 ± 0.68; that for CNMDISVCYYRLLMWQRGFR was “inactive”.
As for CVCPKANVEYPMACFRHIIV, the amyloid nucleation score entry is “inactive”.
In the case of YFLGRVRK it was “inactive”; in that of SSMLI, “inactive”.
The value for LGRPYQHVWYIHSEVKGVEY was 0.116 ± 0.28.
Consider WFYVIGTVMWYSLNAGYYMW, for which the amyloid nucleation score result was “inactive”.
On to GLGYFPIWASLRTKLVLILG, for which the amyloid nucleation score result is “inactive”.
Take DILFDGESLFPYTENSWETR: the amyloid nucleation score result is “inactive”.
In the case of NRWTIPCFCGRKL it was 1.12 ± 0.089; in that of CRSGCAVYS, “inactive”.
Turning to PVKGSFDT, the amyloid nucleation score result was “inactive”.
On to RFGSVCPDL, for which the amyloid nucleation score entry is “inactive”.
Consider LHVYTSILWWTYKVDVWLLS, for which the amyloid nucleation score entry is “inactive”.
The value for MSTMVYRASRCGRLG was 0.399 ± 0.53; that for CTTVDVGALVDGESNHCISL was “inactive”.
The value for VSRRFVIM was 0.45 ± 0.17.
In the case of LTWYWKNGCSLLPLIGLSGN it was “inactive”.
With LAVGRTWMLVANWDSMGQIV, the amyloid nucleation score entry was “inactive”.
In the case of HAKADL it was “inactive”; in that of FNSYHTANRYI, “inactive”; in that of SSPDCNYNECVPGACERRGF, “inactive”.
The value for KSWNGQMYCVASGKQKTIMY was “inactive”.
The value for QHMFQAWFTVNKFSRGECGF was “inactive”; that for VKRGFEWFCSMTHFNTSCIR was “inactive”.
Turning to KNSASLFL, the amyloid nucleation score entry was “inactive”.
Regarding VGTPCSYSWLAAPV, the amyloid nucleation score entry was “inactive”.
As to LSWIASSGKGWSTTMCISTM, the amyloid nucleation score entry was “inactive”.
Regarding LVAGSTRTSLLVLRALGAWL, the amyloid nucleation score result is “inactive”.
RSLAEGFYGAVPEGSVRFRN: the amyloid nucleation score entry was “inactive”.
The value for MVVMRKSVETTYYWLILAIF was “inactive”.
The value for FISRRIRNVILWCYFM was “inactive”; that for MAAFVCSFEFSLGSTCSMGG was “inactive”.
Regarding RINMELLWIFGGSTWFINRG, the amyloid nucleation score came out at 1.93 ± 0.084.
In the case of LLLRCANHFCYMDATDIYFR it was “inactive”; in that of DWSWFK, “inactive”; in that of PHSQDMVWQCCWGGATAEES, -0.047 ± 0.72.
For the substance MLSYYRFWCPVGRVVMMSFW, the amyloid nucleation score entry was “inactive”.
In the case of FTSYS it was “inactive”; in that of CHDVLIKWNMVCTSVVEGEH, “inactive”.
The value for MCFKTEYSRSPGYIAN was “inactive”; that for CAKLLYGCDTSFREWMVGAE was “inactive”.
The value for FKRWLSSWFKLA was “inactive”.
In the case of GQDWIAV, the amyloid nucleation score result is “inactive”.
Consider LHEENA, for which the amyloid nucleation score result is “inactive”.
The value for YLNRLCLNTNISRAVRCY was “inactive”; that for MTPFIKNS was “inactive”; that for VLIKQECSQRFFDSNLNWHF was 0.688 ± 0.33.
The value for CNTPR was “inactive”; that for FVKCSRMF was “inactive”.
Consider LRGARCYKSNRVIGVLCGSV, for which the amyloid nucleation score entry was “inactive”.
For KCLMNFTVMRGASSCLEVPC, the amyloid nucleation score entry is “inactive”.
As to LFMINLDPASMVHMTPCFTN, the amyloid nucleation score result was “inactive”.
Turning to DAVGCNILACDSGGRDWTGG, the amyloid nucleation score is -0.744 ± 1.2.
In the case of WSFQLSVLFVCNLITYNCV it was 1.68 ± 0.069; in that of VPSQLFLHRHHCVVWIEDMW, 0.827 ± 0.19; in that of YWLRVIKRHRDRHR, “inactive”.
The value for VYGLMIIWVIVLYPV was “inactive”.

Values taken from the supplement of paper PMC12042874.
